The results in this text go back to article PMC12032302, “A20 attenuates oxidized self-DNA-mediated inflammation in acute kidney injury” (Signal Transduction and Targeted Therapy, 2025).

The target of assay [1] is T1, recombinant human NEK7 protein (human, UniProt Q8TDX7 1-302).
T1 construct: NEK7, human, recombinant; source: bought: SinoBiological
Kind of assay: BLI; peptide immobilised on Octet AR2G biosensors at 400 μg/ml for 500 s; recombinant human NEK7 39.0625 to 1250 nM, association 120 s, dissociation 120 s; 1:1 binding model. The settings on record: both partners purified. (Biolayer interferometry detects binding as a change in optical thickness at a sensor tip.)

The target of assay [2] is T2, HA-NEK7 (mouse NIMA-related kinase 7, wild type) (mouse, UniProt Q9ES74 1-302).
T2 construct: NEK7, mouse, cDNA amplified from a mouse cDNA library; also called WT-NEK7; HA-WT-NEK7; source: HEK293T, transiently transfected, in lysate; for BLI purified with HA antibody, eluted with 0.1 M glycine pH 2.0
T2 sequence (Q9ES74 whole entry): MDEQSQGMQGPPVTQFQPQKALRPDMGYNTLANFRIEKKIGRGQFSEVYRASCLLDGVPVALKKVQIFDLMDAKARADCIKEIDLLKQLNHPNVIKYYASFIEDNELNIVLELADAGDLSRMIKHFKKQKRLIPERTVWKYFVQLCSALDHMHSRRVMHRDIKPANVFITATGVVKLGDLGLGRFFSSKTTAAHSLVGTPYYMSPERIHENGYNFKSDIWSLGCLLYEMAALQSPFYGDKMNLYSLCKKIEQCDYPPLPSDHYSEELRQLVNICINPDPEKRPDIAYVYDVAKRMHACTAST
Kind of assay: BLI; 3×HA-NEK7 (WT or Tri-MUT) purified from HEK293T with HA antibody; legend: P-II diluted into the indicated concentrations; methods: peptide immobilised on AR2G biosensors; 1:1 binding model. To be noted: both partners purified.

T1 sequence (Q8TDX7 whole entry): as the sequence (Q9ES74 whole entry) above, with T14P, S52A, D150E, I273M, I285V, A286T, T302S counted along it

B1: A20-derived peptide P-II (peptide)
peptide: KLVALKTNGDGNCLMHAACQYMWGVQDTD
notes: peptide generated according to the OTU domain of A20; also called NEK7 targeting peptide; source: synthetic peptide (constructed by GeneWiz; for BLI: Bootech BioScience &Technology)
B1: the binding result in assay [1] and in assay [2] was “binds” throughout.
